What was measured:
[1] = target: HRP29 tailspike adapter protein gp44 (in the virion) (Shigella phage HRP29); assay: cryo-EM structure
[2] = target: HRP29 tailspike protein gp52 (Shigella phage HRP29); assay: negative-stain electron microscopy with 2D classes and 3D reconstruction
[3] = target: HRP29 decoration protein gp48 (Shigella phage HRP29); assay: cryo-EM structure
[4] = target: HRP29 portal protein gp35 (Shigella phage HRP29); assay: cryo-EM structure

## HRP29 tailspike adapter protein gp44 (in the virion) (natural protein)
[1]
  stoichiometry N: 3

## HRP29 tailspike protein gp52 (natural protein)
[2]
  stoichiometry N: 3

## HRP29 decoration protein gp48 (natural protein)
[3]
  stoichiometry N: 2

## HRP29 portal protein gp35 (natural protein)
[4]
  stoichiometry N: 12
